The results in this text go back to paper PMC9705314, “Characterization of a new potent and long-lasting single chain peptide agonist of RXFP1 in cells and in vivo translational models” (Scientific Reports, 2022).

One test has as its target rat RXFP1 (rat) (UniProt Q6R6I6).
The target in another test is human RXFP1 (human) (UniProt Q9HBX9).
human RXFP1 (human), sequence (Q9HBX9 whole entry): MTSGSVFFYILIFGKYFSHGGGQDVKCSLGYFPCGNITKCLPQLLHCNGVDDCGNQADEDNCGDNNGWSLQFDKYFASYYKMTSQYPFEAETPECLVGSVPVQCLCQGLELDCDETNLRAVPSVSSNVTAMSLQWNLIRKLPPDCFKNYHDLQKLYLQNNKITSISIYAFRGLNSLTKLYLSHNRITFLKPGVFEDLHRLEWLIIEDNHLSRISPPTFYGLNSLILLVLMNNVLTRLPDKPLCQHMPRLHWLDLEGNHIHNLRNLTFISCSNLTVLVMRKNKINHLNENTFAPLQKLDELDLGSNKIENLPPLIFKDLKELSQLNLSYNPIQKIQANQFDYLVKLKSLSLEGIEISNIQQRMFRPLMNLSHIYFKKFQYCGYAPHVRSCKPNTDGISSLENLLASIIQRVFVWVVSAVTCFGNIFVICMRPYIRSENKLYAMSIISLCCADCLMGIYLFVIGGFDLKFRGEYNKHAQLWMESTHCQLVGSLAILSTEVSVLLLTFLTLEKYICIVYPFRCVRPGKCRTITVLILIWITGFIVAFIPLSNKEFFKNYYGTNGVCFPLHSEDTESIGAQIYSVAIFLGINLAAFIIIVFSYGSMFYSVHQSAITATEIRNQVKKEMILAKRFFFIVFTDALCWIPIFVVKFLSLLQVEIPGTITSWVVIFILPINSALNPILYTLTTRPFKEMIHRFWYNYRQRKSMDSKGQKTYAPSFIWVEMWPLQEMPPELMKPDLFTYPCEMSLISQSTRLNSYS

rat RXFP1 (rat), sequence (Q6R6I6 whole entry): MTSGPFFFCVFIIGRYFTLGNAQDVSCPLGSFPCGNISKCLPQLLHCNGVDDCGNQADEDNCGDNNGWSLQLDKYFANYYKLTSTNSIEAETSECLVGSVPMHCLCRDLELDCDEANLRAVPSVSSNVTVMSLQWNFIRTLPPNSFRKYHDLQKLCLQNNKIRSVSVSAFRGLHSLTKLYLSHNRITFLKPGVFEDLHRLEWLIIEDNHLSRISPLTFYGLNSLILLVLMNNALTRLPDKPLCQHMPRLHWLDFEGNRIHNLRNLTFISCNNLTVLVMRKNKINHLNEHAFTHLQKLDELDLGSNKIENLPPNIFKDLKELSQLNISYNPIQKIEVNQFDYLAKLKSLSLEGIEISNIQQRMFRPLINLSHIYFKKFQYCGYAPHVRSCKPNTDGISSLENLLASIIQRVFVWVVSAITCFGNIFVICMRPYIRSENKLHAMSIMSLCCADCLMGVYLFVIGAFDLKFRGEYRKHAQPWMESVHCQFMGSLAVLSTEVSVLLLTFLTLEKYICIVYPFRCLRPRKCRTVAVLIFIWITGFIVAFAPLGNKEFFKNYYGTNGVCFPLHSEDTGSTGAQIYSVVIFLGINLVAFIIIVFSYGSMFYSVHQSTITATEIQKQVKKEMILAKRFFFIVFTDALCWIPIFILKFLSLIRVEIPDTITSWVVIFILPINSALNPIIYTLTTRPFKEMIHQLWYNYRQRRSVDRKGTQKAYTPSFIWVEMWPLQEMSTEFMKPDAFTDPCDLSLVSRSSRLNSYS

For “Human recombinant relaxin (B-29/A-24) (ligand)”, in the test with rat RXFP1 (rat), the cAMP (HTRF) in HEK ratRXFP1 cells, EC50 was determined as 1.4 nM and the cAMP (HTRF) in HEK ratRXFP1 cells, Emax (% of the 100 nM relaxin response) turned out to be 95.6%. In the test with human RXFP1 (human), the cAMP (HTRF) in EA.hy926 hRXFP1 cells, EC50 is 0.06 nM; the cAMP (HTRF) in EA.hy926 hRXFP1 cells, Emax (% of the 100 nM relaxin response) is 100%; the cAMP (HTRF) in OVCAR5 cells with endogenous human RXFP1, EC50 amounted to 1.8 nM; the cAMP (HTRF) in OVCAR5 cells with endogenous human RXFP1, Emax (% of the 100 nM relaxin response) is 96.2%.
